From article PMC7251975 (Biochemistry, 2016)

Key:
[1] = target: rabbit STEAP1 (Six Transmembrane Epithelial Antigen of Prostate member 1) with residues 2-42 truncated (rabbit); test: SEC
[2] = target: rabbit STEAP1 (Six Transmembrane Epithelial Antigen of Prostate member 1) with residues 2-42 truncated (rabbit); test: SEC-MALS
[3] = target: rSTEAP1 (Six Transmembrane Epithelial Antigen of Prostate 1) (Oryctolagus cuniculus, UniProt G1SWI4); test: fluorescence titration; format: binding
Sequence of rSTEAP1 (Six Transmembrane Epithelial Antigen of Prostate 1) (G1SWI4 43-352): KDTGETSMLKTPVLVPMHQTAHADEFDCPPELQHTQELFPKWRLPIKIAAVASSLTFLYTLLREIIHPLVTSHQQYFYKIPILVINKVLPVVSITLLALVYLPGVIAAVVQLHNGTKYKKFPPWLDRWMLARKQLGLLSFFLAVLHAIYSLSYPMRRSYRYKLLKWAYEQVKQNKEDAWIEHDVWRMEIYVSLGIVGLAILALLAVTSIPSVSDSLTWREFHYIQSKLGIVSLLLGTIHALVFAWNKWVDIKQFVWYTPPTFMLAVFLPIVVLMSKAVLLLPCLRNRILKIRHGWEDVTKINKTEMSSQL

| stoichiometry N [1] | stoichiometry N [2] | Kd [3] | Molecule |
| --- | --- | --- | --- |
| 3 | 3 |  | rabbit STEAP1 (Six Transmembrane Epithelial Antigen of Prostate member 1) with residues 2-42 truncated (domain or fragment) |
|  |  | 32.3 ± 1.3 µM | Cc1cc2nc3c(=O)[nH]c(=O)nc-3n(C[C@H](O)[C@H](O)[C@H](O)COP(=O)(O)OP(=O)(O)OC[C@H]3O[C@@H](n4cnc5c(N)ncnc54)[C@H](O)[C@@H]3O)c2cc1C [FAD] |
